Data published in the nanobody polyreactivity screen of Harvey et al. (2022).

Experiment: yeast display, Sf9 membrane polyspecificity reagent, FACS + sequencing; frameworks hold sequencing errors
In short: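 Using colony PCR, genes from sorted yeast display clones were amplified, then sequenced on MiSeq at 2 × 250 and filtered by CDR length. The clones had been stained with 10% biotinylated, detergent-solubilized Sf9 membrane reagent for 1 hour at 4 °C and sorted by FACS into low and high (top ~1%) gates on anti-HA and streptavidin fluorescence. Polyreactivity labels come from the gate of origin.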

Sequence | polyreactivity (PSR sort gate)
QVQLLESGGGLVQAGGSLRLSCAASGLIFAGNAMGWYRQAPGKERELVAAISSSGGRTYYADSVKGRFTFSRDNAKNTVYLQMYSLKPEDTAVYYCAAVRTGYYRQYDYWGQGTQVTVSS | high polyreactivity
QVQLVESGGGLVKEGGSLRLRCAASGRTFYVNAMGWSRQAPGKERELFASISSSGGSTYYADSVKGRFTSSRDNAKNTVYLQMNRLKPEDTEVYYCAKGYWPFWRGDRFYWGQGTQVTVSS | high polyreactivity
QVQLVESGGGLVQAGGSLRLSSAASGSTFKFYAMGWYRQAPGKERELVAAIRYSGGSTYYADSVKGRFTISRDNAKNTVYLQMNSLKPEDTAVYFCATEAQCVTYWFGYWGQGTQVTVSS | low polyreactivity
QVQLVESGGGIVQAGGRLRLSCAASGFTCARNVMGWYRQAPGKERELVAAITTSGGSTYYADSVKGRFTISRDNAKNTVSLQMNSLKPEDTAGYYCARRVYGYYIPYNYWGQGTQVTVSS | high polyreactivity
QVQLVESGGGLVQAGGSLRLSCAPSGSIFYSYAMVWYRQAPGKERELVASISRGGTTYYADSVKGRFTISRDNAKNTVYLQMNSLKPEDTAVYYCAAELSEWTNGFDYWGQGTQVTVSS | high polyreactivity
QVQLVESGGGLVQAGGSLRLSCAASGFTFYSYPLGWYRQAPGKERELVAAITRGGRTYYADSVKGRFTISRDNAKTTVYLQMNSLKPDDSAVSYCNATAGHGYYYWGQGTQVTVSS | high polyreactivity
QVQLVESGGGLVQAGGSLRLSCAASGRIFRDYAMGWYRQAPGKETELVATITWSGATTYYADSVKGRFTISRDNAKNTVYLQMNSLKPEDTAVYYCNTDTDVDVAFDSWGQGTQVTVSS | low polyreactivity
KVQIVESGGGLVQAGRSLRLSCAASGLTFFGNAMGWYRQAPGKERDLVATISSCGGTSYADSVKGRFTISRDNAKNTVYLQMNSLKPEDTEVYYCAADIVEEFDYWGLGTQVTVSS | low polyreactivity
QVQLEESGGGLVQAGGSLRLICAASGLTFPPNSMRWYRQATGKERELVADSGGSTNYADSVKGRFTISRDNAKNNVYLQMNSLKPEDTAVYYCAAPPYSDGQWDDYWGQGTQVTVSS | low polyreactivity
QVQLVESGGGLVQAGGSLRLSCAASGRIFNGNAMGWYRQAPGKERELVAAISYSGGATYYADSVKGRFTISRDNAKNTVYLQMNSLKPEDTAVYYCAAAAWDPKGSRYDYWGQGTQVTVSS | low polyreactivity
QVQLVESGGGLVQAGGSLRLSCAASGRIFSYAMGWYRQAPGKERELVAGSTYYADSVKGRFTISRDNAKNTVYLQMNSLKPEDTAVYYCNVGGYGLRGDYWGQGTQVTVSS | low polyreactivity
QVQLVESGGGLVQAGGSLRLSCAASGFTFSWYAMGWYRQAPGKERELVAAINADGGTTYYADSVKGRFTISRDNAKNTVYLQMHSLKPEDTAVYYFAAELSVDKYDYWGQGTQVSVSS | low polyreactivity
QVQLVESGGGLVQAGGSLRLSCAASGIIFIFYDMGWYRQAPGTERELVAAITNGVDSTYYADSVKGRFTISRDNAKNTVYLQMNSLKPEDTAVYYCNADTVVEWYSPSREYDYWGQGTQVTVSS | low polyreactivity
QVQHEESGGGLVQAGGSLRLSCAASGRTYDPYAMGWYRQAPGKERELVAAISSGGSTNYADSVKGRFTISRDNAKNTVYLQMNSLKPEDTAVYYCGTDSGDGEGDYWGQGSQVTVSS | low polyreactivity
QVQLVESGGGLVQAGGSLRLSCAASGSTLRAYAMGWYRQAPGKERELVAGITSGGRTNYADSVKGRFTISRDNAKNTVYLQMNSLKPEDTAVYYCATDRFSHYYFLYDYWGQGTQVTVSS | low polyreactivity
QVQLVESGAGLVLPGGSLRLSCAASGNTTSTNAMGWYRQAPGKERVAALTWSTGSTYYEDSVKVRFTISRDNAKNTVYLQMNSLKQDETAVYYCAKQTYVSEYGLATAAWGFDYWGQGTQVTVSS | low polyreactivity
QVQLVESGGGLVQAGGSLRLSCAASGRTIGSYAMGWYRQAPGKERELVAAITSSCGSTYYADSVKGRFTISRDNAKNTVYLQMNSLKPEDTAVYDCAALWGRRGWWGVSWSFSTGFDYWGQGTQVTVSS | high polyreactivity
QVQLQESGGGLVQAGGSLRQSCAASGSNSPWSYMGRSRQAPGKEREFVASINAGTNTYYADSAKGRITISRDNATNTVYLQMNSLKPEDTAAYYCAARYWNDYYFPYWGQGTQVTVSS | low polyreactivity
QVQLVESGGGLVQAGGCLRLSCAASGSTFEDYAMGWYRQATGKERALVAAINSGGSTYYADSVKGRFTFSRHNAKNTVYLQMNSQKPEDTAVYYCAARIYYWTYRYNYWGQGTQVTVSS | high polyreactivity
QVQLVESGGGLVQAGGSLRLSCPASGSIFYYYAMGWYRQAPGKERELVAAIRGSGSSTYYADSVKGRFTISRDNAKNTVYLQMNSLKPEDTAVYYCAAYDLLVGLQYDYWGQGTQVTVSS | low polyreactivity
QVQLVESGGGLVQAGGSLRLSCAASGRTFFDYVMGWYRQAPGKERELVAAISTSGTSTYYADSVKGRFTISRDNAKNTVYLHMNSLKPEDTAVYYCAAGNYLYSYGYGYWGQGTQVTVSS | high polyreactivity
QVQLVESGGGLVQAGGSLRLSCAASGSISSFYAMGWYRQAPGKERELVAGITSGGSTNYADSVKGRFTISRDNAKNTVYLQMNSLKPEDTAVDYCAAVYKGAGTHFDVFVKEFDYWGQGTQVTVSS | low polyreactivity

Sequence | polyreactivity (PSR sort gate)
QVQLEESGGGLVQAGGSLRLSCAASGFTFGGYAMGWYRQAPGKERELVAAITGSGGNTFYADSVKGRFTISRDYAKNTVYLQMNCLKPEDTAVYYCAKSWYPWSSYGYYRRYDSWGQGTQVTLSS | low polyreactivity
QVQLVESGGGLVQAGGSLRLSCAASGSTFFPYAMGWYRQAPGKERELVAAIRWSGGRTYYADSVKGRFTISRDNAKNTVYLQMNSLKPEDTAVYYCAAEKYLDYDYWGQGTQVTVSS | high polyreactivity
QVQLVESGGGLVQAGGSLRLSCAASGSTFLRFAMGWYRQAPGKERELVARISGGGTTYYADSVKGRFTISRDNAKNTVYLQMNSLKPEDTAVYYCNAFYFYVNQGRYEYGYWGQGTQVTVSS | high polyreactivity
QVQLVDSGGGLVQAGGSLRLSCAASGRIFSRYAMGGYRQAPGKERQLVAAITIGGRTNYADSVKGRFTFSRDNAKNTVYLQMNSLKPEDSAVYYCAVVLYTRYPPRVRYYYWGQGTQVTVSW | high polyreactivity
QVQLVESGGGLVQAGGSLRLSCAASGRIFYGNAMGWYRQAPGKERQLVAAITDGGSTNYADSVKGRFTISRDNAKNTVYLQINSLKPEDTAVYYCNADNILYWSTLDYWGQGTQVTVSS | low polyreactivity
QVQLVESGGGLVQAGGSLRLSCAASGSTFGWNAMGWYRQAPGKERELVAAINKSGGRTYYADSVKGRFTISRDNGKNTVYLQMNRLKPEDTAVYYCAAVTPIRVTSPDYDYWGQGTQVTVSS | low polyreactivity
QVQLVESGGGVVQAGGSLRLSCAATGSRYWDYPMGWYRQAPGKERELVAAISTSGGSTYYADSVKGRFTISRDNAKNTVYLQMNSLNPEDTAVYYCATRVRTGSVGNFNYWGQGTQVTVSS | high polyreactivity
QVQLVESGGGLVQAGGSLRLSCAASGSTFTWYAMGWNRQAPGKERELVADITWRDGSTYYADSVKGRFTISRDNAKNTVYLQMNSLKPEDTAVYYCNARRDYDMDWGQGTQVTVSS | high polyreactivity
QVQHVESGGGLVQEGGSLRLICSASGIIFSWYAMGWYRQAPGKERELVATISGGGGSTYYADSVKGRFTISRENAKNTVYLQMNRLKPEDTAVYYCAADYWNFNWRYKLYRPYDYWGQGTQVTVSS | high polyreactivity
QVQLVESGGGLVQAGGSLRLSCAASGFILDRYAMGWYRQAPGKERELVASITSGGSTNYADSVKGRFTISRDNAKNTVYLQMNSLIPEDTAVYYCAAYPWRYWNHEYNYWGQGTQVTVSS | high polyreactivity
QVQLVESGGGLVQAGGSLRLSCAASGRICINDMGWYRQAPGKERELVAAIRSDGSTNYADSVKGRFTISRDNAKNTVYLQMNSLKPEDTAVYYCNVDGYYLFVRGYEYWGQGTQVTVSS | low polyreactivity
QVQLEESGGGLVQAGGSLRLSCAASGSTFEYKAKGWYRQAPGKERELVASSTNYADSVKGRFTISRDNAKNTVYLQMNSLKPEDTAVYYCAREQGVNRNHDYWGQGTQVTVSS | low polyreactivity
QVQLVDSGGGLFQAGGSLSLICAASASKYDINAMGRYRQAPGKETELVADISWSGGRTYYADSVKGRFTISRDNAKNTVYLKMNSLKPEETAVYYCNAQDSRFWYAEYDSWGQGTQVTVSS | low polyreactivity
QVQLVESGGGLVQAGGSLRLSCAASGRIFKVYAMGWYRQAPGKERELVASIRWNTGSTYYADSVKGRFTISRDNAKNSVYLQMNSLKPEDTAVYYCAATDWWGYYYWGQGTQVTVSS | high polyreactivity
QVHLVESGGGLVQAGGSLRLSSAASGRTFTAYTMGSYRQAPGKEREMVASISSGVTYADSVKGRFTISRDNAKNTVYLQMNSLKTVDTAVYYCAARLWYVQGYVPYVHHRFDYWGQGTQVTVSS | low polyreactivity
QVQLEESGGGLVQAGGSLRLSCAASGRIIQQYAMGWSRQAPGKDRELVAAISRGGSTYYADSEKGRFTISRDNAKNTVYLLMYSLKPEDTAVYDCNAGVGFTSAPQKYYYWGEGTQVTVSS | high polyreactivity
QVQLVESGGGLVLAGGSLSLSCAASGSTFIWNAMGWYRQAPGKERELVAAIRRGSSTNYADSVKGRFTISRDNAKNTVYLQMNSLKPEDTAVYYCAKKQVTTDVSSETFVLEMDYWGQGTQVTVSS | low polyreactivity
QVQLVESGGGVVQAGGSLRLSCAASGRIFDLYAMGWYRQAPGKERELVATISGSGGSTYYADSVKGRFTISRDNAKNTVYLQMNSLKPEDTAVYYCAAVSVSSWYDYWGQGTQVTVSS | low polyreactivity
QVQLVESGGGLVQAGGSLRLSCAASGRTSGAYAMGWYRQAPGKERELVAAISIAGITYADSVKGRFTISRDNAKNTVYLQMNSLKPEDTAVYYCAAYYLFRPYAQYDYWGQGTQVTVSS | low polyreactivity
QVQLVESGAGLVQAGGSLRLRCAASGYTLGPYAMGWYRPAPGKERELVAAISWGGGRTYYADSVKGRFTISRDNAKNTVYLQMNSLKPEDTAVYDCAAKWSHVRDGPKYDYWGQGTQVTVSS | low polyreactivity
QVQLVESGAGLVQAGGSLRLSCAASGFIYEWYTMGWYTQAPGKERELVARISTDGSTTYADSVKGRFTISRDHAKKTVYLQMNSLKPEDTSVYYCAADVTYPGLKYIFDYWGQGTQVTVSS | low polyreactivity
